The experiment has as its target FcRn (Neonatal Fc Receptor). Description: SPR (BIAcore T200), FcRn amine-coupled on CM5 chip, antibody 1.96-31.25 nM flowed, pH 6.0 or 7.4 not given, 1:1 fit; Table 4 taken as the FcRn table. Background: Surface plasmon resonance follows binding to a sensor surface in real time, without labels.

On to Trastuzumab (antibody), for which the Kd came out at 0.572 nM.

The Kd is the free concentration of one partner at which half of the binding sites on the other are occupied at equilibrium, for simple one-to-one binding.

(Values after patent EP4678648A1.)
